From article PMC8153938 (ACS Omega, 2021)
Values belong to the molecule of their own block, whether it stands above or below them.

Columns and labels:
[1] = biological target: Unphosphorylated human Protein kinase R (PKR), wild type (human) (UniProt P19525); assay: AUC
AUC = biological target: the molecule itself; assay: AUC

- Kd [1]: 702 µM
Molecule: Unphosphorylated human Protein kinase R (PKR), wild type (from UniProt P19525 1-551) (enzyme)

B1: PKR R107A (enzyme, human, UniProt P19525 1-551, looked up)
chain: MAGDLSAGFFMEELNTYRQKQGVVLKYQELPNSGPPHDRRFTFQVIIDGREFPEGEGRSKKEAKNAAAKLAVEILNKEKKAVSPLLLTTTNSSEGLSMGNYIGLINAIAQKKRLTVNYEQCASGVHGPEGFHYKCKMGQKEYSIGTGSTKQEAKQLAAKLAYLQILSEETSVKSDYLSSGSFATTCESQSNSLVTSTLASESSSEGDFSADTSEINSNSDSLNSSSLLMNGLRNNQRKAKRSLAPRFDLPDMKETKYTVDKRFGMDFKEIELIGSGGFGQVFKAKHRIDGKTYVIKRVKYNNEKAEREVKALAKLDHVNIVHYNGCWDGFDYDPETSDDSLESSDYDPENSKNSSRSKTKCLFIQMEFCDKGTLEQWIEKRRGEKLDKVLALELFEQITKGVDYIHSKKLIHRDLKPSNIFLVDTKQVKIGDFGLVTSLKNDGKRTRSKGTLRYMSPEQISSQDYGKEVDLYALGLILAELLHVCDTAFETSKFFTDLRDGIISDIFDKKEKTLLQKLLSKKPEDRPNTSEILRTLTVWKKSPEKNERHTC
- Kd (AUC): 704 µM
